In data set [1] the target is Recombinant major apple allergen Mal d 1 (apple) (UniProt P43211). The data set can be described thus: native MS; ESI FT-ICR, direct infusion, 10 mM ammonium acetate pH 6.9, allergen (monomer) concentration 9 µM.
The target of data set [2] is Recombinant birch pollen profilin Bet v 2 (birch). The data set can be described thus: native MS; ESI FT-ICR, direct infusion, 10 mM ammonium acetate pH 6.9, allergen (monomer) concentration 40 µM.
Data set [3] has as its target Recombinant major celery allergen Api g 1 (celery). The data set can be described thus: native MS; ESI FT-ICR, direct infusion, 10 mM ammonium acetate pH 6.9, allergen (monomer) concentration 10 µM.
Data set [4] deals with the molecule itself. The data set can be described thus: native MS; ESI FT-ICR, direct infusion, 10 mM ammonium acetate pH 6.9, allergen (monomer) concentration 8 µM.
Data set [5] deals with the molecule itself. The data set can be described thus: native MS.
Data set [6] addresses T1, Recombinant birch pollen allergen Bet v 1a (birch), P15494.
T1 chain: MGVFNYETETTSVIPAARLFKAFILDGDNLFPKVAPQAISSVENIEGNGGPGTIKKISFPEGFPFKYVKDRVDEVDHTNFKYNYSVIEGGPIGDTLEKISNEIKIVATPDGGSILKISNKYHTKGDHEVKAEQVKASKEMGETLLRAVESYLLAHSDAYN
The data set is described as follows: native MS; ESI FT-ICR, direct infusion, 10 mM ammonium acetate pH 6.9, allergen (monomer) concentration 40 µM. Particulars: remark: other sources report otherwise.

Data set [7] concerns the molecule itself. The data set is described as follows: native MS; ESI FT-ICR, direct infusion, 10 mM ammonium acetate pH 6.9, allergen (monomer) concentration 10 µM.

“And” between values parts separate entries of the source, which are not always exact repeats. Equal values may be shown once.

Broadly, the stoichiometry N is the number of molecules, sites or subunits per partner or assembly. In the case of “Recombinant major apple allergen Mal d 1 (from UniProt P43211 1-159) (natural protein)”, the stoichiometry N in data set [1] stood at 2.

In the case of “Recombinant birch pollen profilin Bet v 2 (natural protein)”, the stoichiometry N in data set [2] was 2 and 3 and 4.

Regarding “Recombinant major celery allergen Api g 1 (natural protein)”, the stoichiometry N in data set [3] was 2.

B1: Recombinant Alternaria alternata allergen Alt a 1 (natural protein)
chain: APLESRQDTASCPVTTEGDYVWKISEFYGRKPEGTYYNSLGFNIKATNGGTLDFTCSAQADKLEDHKWYSCGENSFMDFSFDSDRSGLLLKQKVSDDITYVATATLPNYCRAGGNGPKDFVCQGVADAYITLVTLPKSS
notes: source: bought: Biomay AG (recombinant)
As for B1, the “stoichiometry N” value in data set [4] came out at 2.

B2: Bos d 5 variant A (in native Bos d 5) (natural protein)
chain: LIVTQTMKGLDIQKVAGTWYSLAMAASDISLLDAQSAPLRVYVEELKPTPEGDLEILLQKWENDECAQKKIIAEKTKIPAVFKIDALNENKVLVLDTDYKKYLLFCMENSAEPEQSLVCQCLVRTPEVDDEALEKFDKALKALPMHIRLSFNPTQLEEQCHI
Regarding B2, in data set [5], the “abundance ratio among the dimeric species” value amounted to 18%.

B3: Recombinant birch pollen allergen Bet v 1a, P15494 1-160 (natural protein)
chain: MGVFNYETETTSVIPAARLFKAFILDGDNLFPKVAPQAISSVENIEGNGGPGTIKKISFPEGFPFKYVKDRVDEVDHTNFKYNYSVIEGGPIGDTLEKISNEIKIVATPDGGSILKISNKYHTKGDHEVKAEQVKASKEMGETLLRAVESYLLAHSDAYN
For the molecule B3, in data set [6], the stoichiometry N worked out at 2.

B4: Recombinant rubber tree allergen Hev b 8 (natural protein)
chain: SWQTYVDDHLMCDIDGHRLTAAAIIGHDGSVWAQSSSFPQFKSDEVAAVMKDFDEPGSLAPTGLHLGGTKYMVIQGEPGAVIRGKKGSGGITVKKTGQALIIGIYDEPLTPGQCNMIVERLGDYLLDQGL
B4: in data set [7], the “stoichiometry N” value was determined as 2.

B5: Recombinant timothy pollen allergen Phl p 6 (natural protein, UniProt P43215 23-132, looked up)
chain: GKATTEEQKLIEDVNASFRAAMATTANVPPADKYKTFEAAFTVSSKRNLADAVSKAPQLVPKLDEVYNAAYNAADHAAPEDKYEAFVLHFSEALRIIAGTPEVHAVKPGA
notes: as for B1
With B5, the “stoichiometry N” value in data set [7] was 2 and 3.

The values above are taken from article PMC2816702 (PLoS ONE, 2010).
